In PMC4968620 (Biochemistry, 2016):

Target: the molecule itself
Assay: SAXS

B1: HsRXRαΔNTD (130-462) (domain or fragment)
chain: FTKHICAICGDRSSGKHYGVYSCEGCKGFFKRTVRKDLTYTCRDNKDCLIDKRQRNRCQYCRYQKCLAMGMKREAVQEERQRGKDRNENEVESTSSANEDMPVERILEAELAVEPKTETYVEANMGLNPSSPNDPVTNICQAADKQLFTLVEWAKRIPHFSELPLDDQVILLRAGWNELLIASFSHRSIAVKDGILLATGLHVHRNSAHSAGVGAIFDRVLTELVSKMRDMQMDKTELGCLRAIVLFNPDSKGLSNPAEVEALREKVYASLEAYCKHKYPEQPGRFAKLLLRLPALRSIGLKCLEHLFFFKLIGDTPIDTFLMEMLEAPHQMT
  stoichiometry N: 2
